Data: patent US20230265198A1 (TWIST BIOSCIENCE, published 2023)

Molecular target: T1, neuropilin-1 (NRP1) on HEK293 cells overexpressing NRP1 (UniProt O14786 22-923, limits assumed)
T1 construct: whole, on cells
Experiment: flow cytometry, HEK293-NRP1 vs HEK293

B1: NRP1-79 (VHH)
VHH: EVQLVESGGGLVQPGGSLRLSCAASGRTYYAMGWFRQAPGKEREFVAAISWGGGLTVYADSVKGRFTISADNSKNTAYLQMNSLKPEDTAVYYCASSGWLTDYYYAMDVWGQGTLVTVSS
100 nM FACS (MFI Ratio): 13.2

B2: NRP1-71 (VHH)
VHH: EVQLVESGGGLVQPGGSLRLSCAASGRTFSNAAMGWFRQAPGKERELVARITPGGNTNYADSVKGRFTISADNSKNTAYLQMNSLKPEDTAVYYCAARRIVNVEGAYRDWGQGTLVTVSS
100 nM FACS (MFI Ratio): 0.4

B3: NRP1-51 (VHH)
VHH: EVQLVESGGGLVQPGGSLRLSCAASGFAFSNYHMGWFRQAPGKERELVARITPGGNTNYADSVKGRFTISADNSKNTAYLQMNSLKPEDTAVYYCAARRIVNVEGAYRDWGQGTLVTVSS
100 nM FACS (MFI Ratio): 0.8

B4: NRP1-100 (VHH)
VHH: EVQLVESGGGLVQPGGSLRLSCAASGRSVSTYGMGWFRQAPGKERELVASISRFGRTNYADSVKGRFTISADNSKNTAYLQMNSLKPEDTAVYYCAARRIVNVEGAYRDWGQGTLVTVSS
100 nM FACS (MFI Ratio): 0.6

B5: NRP1-48 (VHH)
VHH: EVQLVESGGGLVQPGGSLRLSCAASGFTFRNFGMGWFRQAPGKERELVARITGGGSTAYADSVKGRFTISADNSKNTAYLQMNSLKPEDTAVYYCAARRIVNVEGAYRDWGQGTLVTVSS
100 nM FACS (MFI Ratio): 0.7

B6: NRP1-46 (VHH)
VHH: EVQLVESGGGLVQPGGSLRLSCAASGFTFRNFGMGWFRQAPGKEREIVARISPSGNTYYADSVKGRFTISADNSKNTAYLQMNSLKPEDTAVYYCAARRIVNVEGAYRDWGQGTLVTVSS
100 nM FACS (MFI Ratio): 2.2

B7: NRP1-77 (VHH)
VHH: EVQLVESGGGLVQPGGSLRLSCAASGRIFINNAMGWFRQAPGKERELVARISPAGSTYYADSVKGRFTISADNSKNTAYLQMNSLKPEDTAVYYCAARRIVNVEGAYRDWGQGTLVTVSS
100 nM FACS (MFI Ratio): 4.9

B8: NRP1-59 (VHH)
VHH: EVQLVESGGGLVQPGGSLRLSCAASGRTISNAAMGWFRQAPGKERELVASISRFGRTNYADSVKGRFTISADNSKNTAYLQMNSLKPEDTAVYYCAARRIVNVEGAYRDWGQGTLVTVSS
100 nM FACS (MFI Ratio): 0.4

B9: NRP1-65 (VHH)
VHH: EVQLVESGGGLVQPGGSLRLSCAASGRTISNAAMGWFRQAPGKEREWVAAITSGGYTHYADSVKGRFTISADNSKNTAYLQMNSLKPEDTAVYYCAARRIVNVEGAYRDWGQGTLVTVSS
100 nM FACS (MFI Ratio): 0.7

B10: NRP1-80 (VHH)
VHH: EVQLVESGGGLVQPGGSLRLSCAASGSIDRINAMGWFRQAPGKEREFVASIWWTFDAPYYADSVKGRFTISADNSKNTAYLQMNSLKPEDTAVYYCATWTTTWGRNRDWGQGTLVTVSS
100 nM FACS (MFI Ratio): 6.9

B11: NRP1-96 (VHH)
VHH: EVQLVESGGGLVQPGGSLRLSCAASGLTYTMSWFRQAPGKEREFVAGFSGSGSVTSYADSVKGRFTISADNSKNTAYLQMNSLKPEDTAVYYCAAFDGYSGSDWGQGTLVTVSS
100 nM FACS (MFI Ratio): 1.4

B12: NRP1-78 (VHH)
VHH: EVQLVESGGGLVQPGGSLRLSCAASGRTFRSYPMGWFRQAPGKEREWVASITSSATAYADSVKGRFTISADNSKNTAYLQMNSLKPEDTAVYYCALGPVRRSRLEWGQGTLVTVSS
100 nM FACS (MFI Ratio): 3.6

B13: NRP1-1 (VHH)
VHH: EVQLVESGGGLVQPGGSLRLSCAASGRTFRRYAMGWFRQAPGKEREFVASISRSGTLTRYADSVKGRFTISADNSKNTAYLQMNSLKPEDTAVYYCAAKTGAFSYGSLWWMSRAYNWGQGTLVTVSS
100 nM FACS (MFI Ratio): 15.4
